pKd: −log10 of the molar value.
Key:
Assay in all cases: IEDB peptide-MHC binding, purified MHC/competitive/radioactivity; filed as Kd, often an IC50 or EC50 that approximates it; ≥ and ≤ were set here for values at or beyond the usual limits of such assays
HLA-A*11:01 = target: HLA-A*11:01
HLA-A*68:01 = target: HLA-A*68:01
HLA-A*03:01 = target: HLA-A*03:01
HLA-A*33:01 = target: HLA-A*33:01
HLA-A*31:01 = target: HLA-A*31:01
HLA-A*02:06 = conditions: source organism: Vaccinia virus WR
HLA-A*02:03 = conditions: source organism: Vaccinia virus WR
HLA-A*02:02 = conditions: source organism: Vaccinia virus WR
[1] = source organism: Vaccinia virus WR
[2] = source organism: SARS coronavirus Tor2
[3] = source organism: Lassa virus Josiah
[4] = source organism: Dengue virus 2 Jamaica/1409/1983
[5] = source organism: Vaccinia virus Copenhagen

YALINLVQY
pKd (HLA-A*11:01; [1]): ≤ 4.11
pKd (HLA-A*68:01; [1]): ≤ 4.29
pKd (HLA-A*03:01; [1]): ≤ 4.11
pKd (HLA-A*33:01; [1]): ≤ 4.11
pKd (HLA-A*31:01; [1]): ≤ 4.69

ALGGSIAVK
pKd (HLA-A*11:01; [2]): 6.77
pKd (HLA-A*68:01; [2]): 4.95
pKd (HLA-A*03:01; [2]): 7.82
pKd (HLA-A*33:01; [2]): ≤ 4.11
pKd (HLA-A*31:01; [2]): 4.90

IIAVFDSKL
pKd (HLA-A*02:06): 7.01
pKd (HLA-A*02:03): 6.97
pKd (HLA-A*02:02): 7.36

DVCKKNLDL
pKd (HLA-A*02:06): 4.79
pKd (HLA-A*02:03): 5.10
pKd (HLA-A*02:02): ≤ 4.60

DIKYDNKLL
pKd (HLA-A*02:06): ≤ 4.11
pKd (HLA-A*02:03): ≤ 4.30
pKd (HLA-A*02:02): 5.85

LITNTKSDNI
pKd (HLA-A*02:06): 4.73
pKd (HLA-A*02:03): 5.51
pKd (HLA-A*02:02): 5.65

HIVGKSCPK
pKd (HLA-A*11:01; [3]): 4.82
pKd (HLA-A*68:01; [3]): ≤ 4.57
pKd (HLA-A*03:01; [3]): 4.96
pKd (HLA-A*33:01; [3]): ≤ 4.62
pKd (HLA-A*31:01; [3]): ≤ 4.35

IISSKQYPA
pKd (HLA-A*02:06): 5.94
pKd (HLA-A*02:03): 6.21
pKd (HLA-A*02:02): 6.79

AVIIMAINV
pKd (HLA-A*02:06): 7.19
pKd (HLA-A*02:03): 5.56
pKd (HLA-A*02:02): 5.04

PTEMVDVSM
pKd (HLA-A*02:06): ≤ 4.40
pKd (HLA-A*02:03): ≤ 4.38
pKd (HLA-A*02:02): 4.97

SMTSDSKSI
pKd (HLA-A*02:06): ≤ 4.25
pKd (HLA-A*02:03): 5.64
pKd (HLA-A*02:02): 5.08

SADASTFLK
pKd (HLA-A*11:01; [2]): 8.53
pKd (HLA-A*68:01; [2]): 7.92
pKd (HLA-A*03:01; [2]): 7.79
pKd (HLA-A*33:01; [2]): 5.59
pKd (HLA-A*31:01; [2]): 7.00

TTFVTPMLR
pKd (HLA-A*11:01; [4]): 7.10
pKd (HLA-A*68:01; [4]): 8.42
pKd (HLA-A*03:01; [4]): 6.99
pKd (HLA-A*33:01; [4]): 8.25
pKd (HLA-A*31:01; [4]): 7.78

SINVTIPEQY
pKd (HLA-A*11:01; [1]): 6.11
pKd (HLA-A*68:01; [1]): 5.28
pKd (HLA-A*03:01; [1]): 4.72
pKd (HLA-A*33:01; [1]): 4.89
pKd (HLA-A*31:01; [1]): 5.09

SLNRQTVSR
pKd (HLA-A*11:01; [1]): 5.87
pKd (HLA-A*68:01; [1]): 6.09
pKd (HLA-A*03:01; [1]): 7.17
pKd (HLA-A*33:01; [1]): 6.54
pKd (HLA-A*31:01; [1]): 8.14

ATSTGNYNYK
pKd (HLA-A*11:01; [2]): 8.86
pKd (HLA-A*68:01; [2]): 8.02
pKd (HLA-A*03:01; [2]): 8.36
pKd (HLA-A*33:01; [2]): ≤ 4.58
pKd (HLA-A*31:01; [2]): 7.16

ISRDELWAR
pKd (HLA-A*11:01; [1]): ≤ 4.65
pKd (HLA-A*68:01; [1]): 6.02
pKd (HLA-A*03:01; [1]): ≤ 4.11
pKd (HLA-A*33:01; [1]): 8.77
pKd (HLA-A*31:01; [1]): 7.32

AFQHQNSKK
pKd (HLA-A*11:01; [2]): 5.52
pKd (HLA-A*68:01; [2]): 5.41
pKd (HLA-A*03:01; [2]): 4.86
pKd (HLA-A*33:01; [2]): ≤ 4.65
pKd (HLA-A*31:01; [2]): 6.17

IFPANINDK
pKd (HLA-A*11:01; [1]): 5.96
pKd (HLA-A*68:01; [1]): 5.92
pKd (HLA-A*03:01; [1]): 5.65
pKd (HLA-A*33:01; [1]): 4.90
pKd (HLA-A*31:01; [1]): 5.45

ESRDRKWLYY
pKd (HLA-A*11:01; [1]): ≤ 4.23
pKd (HLA-A*68:01; [1]): 4.97
pKd (HLA-A*03:01; [1]): 4.94
pKd (HLA-A*33:01; [1]): ≤ 4.15
pKd (HLA-A*31:01; [1]): ≤ 4.15

VMHINSPFK
pKd (HLA-A*11:01; [1]): 9.65
pKd (HLA-A*68:01; [1]): 7.10
pKd (HLA-A*03:01; [1]): 8.74
pKd (HLA-A*33:01; [1]): 4.97
pKd (HLA-A*31:01; [1]): 7.70

VTDLENRLK
pKd (HLA-A*11:01; [1]): 7.59
pKd (HLA-A*68:01; [1]): 5.14
pKd (HLA-A*03:01; [1]): 5.65
pKd (HLA-A*33:01; [1]): 4.88
pKd (HLA-A*31:01; [1]): 4.87

WVFGSTMNNK
pKd (HLA-A*11:01; [2]): 6.68
pKd (HLA-A*68:01; [2]): 8.49
pKd (HLA-A*03:01; [2]): 6.71
pKd (HLA-A*33:01; [2]): ≤ 4.15
pKd (HLA-A*31:01; [2]): 5.23

CAMPYNILDR
pKd (HLA-A*11:01; [1]): 6.73
pKd (HLA-A*68:01; [1]): 8.06
pKd (HLA-A*03:01; [1]): 5.14
pKd (HLA-A*33:01; [1]): 6.19
pKd (HLA-A*31:01; [1]): 6.52

ILKINSVKYY
pKd (HLA-A*11:01; [1]): 4.87
pKd (HLA-A*68:01; [1]): 5.85
pKd (HLA-A*03:01; [1]): 4.76
pKd (HLA-A*33:01; [1]): 4.95
pKd (HLA-A*31:01; [1]): 5.31

FVSLVKKNK
pKd (HLA-A*11:01; [1]): 6.92
pKd (HLA-A*68:01; [1]): 6.67
pKd (HLA-A*03:01; [1]): ≤ 4.11
pKd (HLA-A*33:01; [1]): ≤ 4.47
pKd (HLA-A*31:01; [1]): ≤ 4.11

IASKINNNR
pKd (HLA-A*11:01; [1]): 6.48
pKd (HLA-A*68:01; [1]): 8.73
pKd (HLA-A*03:01; [1]): 4.88
pKd (HLA-A*33:01; [1]): 7.12
pKd (HLA-A*31:01; [1]): 7.54

AQYKCVTIKY
pKd (HLA-A*11:01; [1]): 7.10
pKd (HLA-A*68:01; [1]): 6.01
pKd (HLA-A*03:01; [1]): 6.66
pKd (HLA-A*33:01; [1]): ≤ 4.66
pKd (HLA-A*31:01; [1]): 5.67

KLKHRDGFTK
pKd (HLA-A*11:01; [5]): 6.88
pKd (HLA-A*68:01; [5]): ≤ 4.41
pKd (HLA-A*03:01; [5]): 7.43
pKd (HLA-A*33:01; [5]): ≤ 4.54
pKd (HLA-A*31:01; [5]): 6.14

ITYKCPLLR
pKd (HLA-A*11:01; [4]): 7.19
pKd (HLA-A*68:01; [4]): 7.23
pKd (HLA-A*03:01; [4]): 7.79
pKd (HLA-A*33:01; [4]): 6.70
pKd (HLA-A*31:01; [4]): 7.94

TSDSKSIENK
pKd (HLA-A*11:01; [1]): 6.27
pKd (HLA-A*68:01; [1]): 6.43
pKd (HLA-A*03:01; [1]): 4.98
pKd (HLA-A*33:01; [1]): ≤ 4.47
pKd (HLA-A*31:01; [1]): 4.84

HLYLQYIRK
pKd (HLA-A*11:01; [2]): 7.83
pKd (HLA-A*68:01; [2]): 5.79
pKd (HLA-A*03:01; [2]): 9.76
pKd (HLA-A*33:01; [2]): 5.16
pKd (HLA-A*31:01; [2]): 6.29

HIKTIAVSVY
pKd (HLA-A*11:01; [1]): 5.08
pKd (HLA-A*68:01; [1]): 5.24
pKd (HLA-A*03:01; [1]): 6.59
pKd (HLA-A*33:01; [1]): 4.86
pKd (HLA-A*31:01; [1]): 6.04

MLRLFDFNK
pKd (HLA-A*11:01; [3]): 7.30
pKd (HLA-A*68:01; [3]): 6.24
pKd (HLA-A*03:01; [3]): 7.07
pKd (HLA-A*33:01; [3]): 6.28
pKd (HLA-A*31:01; [3]): 6.89

SLLSLREVK
pKd (HLA-A*11:01; [2]): 7.67
pKd (HLA-A*68:01; [2]): 5.92
pKd (HLA-A*03:01; [2]): 6.60
pKd (HLA-A*33:01; [2]): 5.09
pKd (HLA-A*31:01; [2]): 6.73

Reference: the Immune Epitope Database (IEDB)
